What was measured:
Format in all cases: biochemical
[1] = system: pUC19-S5P or pUC19-T7P; experiment: Processivity gel assay, rolling-circle synthesis on single-promoter plasmids
Protocol: FIGS. 9A-9H depict the processivity of Syn5 and T7 RNA polymerases. A) Agarose gel showing RNA synthesis by previously purified Syn5 RNA polymerase, newly purified Syn5 RNA polymerase with the improved procedure, and T7 RNA polymerase on a plasmid template containing a single cognate promoter (as shown in the schematic). B) Product as shown in A) by S5N2 RNA polymerase was incubated with 1 U/[…]1 RNase I or DNase I to confirm its RNA nature. C) Effect of increasing KCl concentration on Syn5 RNA polymerase transcription. D) Products by Syn5 and T7 RNAP in a rolling-circle manner were analyzed at denaturing condition. E) Same assay as D) except that the template plasmids were linearized as shown in the schematic. F) & G) Decreasing the concentration of T7 (F) and Syn5 (G) RNA polymerase reduced the abortive products due to clash of RNA polymerases at promoter region. H) RNA polymerase promoter distribution on coliphage T7 and cyanophage Syn5 genomes.
DNA templates for transcription assays were either plasmids or dsDNA fragments made of synthesized oligonucleotides. To test the processivity of Syn5 and T7 RNAP, a single Syn5 or T7 promoter plus 3 guanosine downstream of the promoter (Syn5 5′-ATTGGGCACCCGTAAGGG-3′ (SEQ ID NO:1) or T7 5′-[…]-3′) (SEQ ID NO:2) was inserted between the BamHI and XbaI sites of plasmid pUC19 to form pUC19-S5P or pUC19-T7P. The templates for run-off tRNA^Arg synthesis were formed by annealing of two complementary synthesized DNA oligos of which sequences are as following:
For the results shown in FIG. 9, reaction mixtures (10 μl) contained 40 mM Tris-HCl pH 8.0, 6 mM MgCl2, 2 mM spermidine, 10 mM DTT, 600 µM[…]P, GTP, CTP, and UTP, 1.5 U/µl RNaseOUT™ recombinant ribonuclease inhibitor, 0.04 U/µl yeast inorganic pyrophosphatase, 10 nM pUC19-Syn5P3G or pUC19-T7P3G, 10 nM Syn5 or T7 RNAP and various amount of KCl as noted in the figure or described in the figure legend. After 1 hr incubations at RT, one unit of DNase I was added to each reaction mixture and incubated for an additional 15 min at 37° C. to remove the DNA templates. For FIGS. 8A-8C, 2 µl reaction mixture was directly mixed with native loading dye and loaded onto 1.6% TAE agarose gel. For FIGS. 8D-8F, RNA products were purified with RNA Clean & Concentrator™-5 kit into a final solution of 10 µl and 5 µl each was mixed with 5 µl denaturing RNA loading dye (New England Biolabs). Samples were then heated at 65° C. for 5 min and loaded onto 1.6% TAE agarose gel. RNA products were visualized by ethidium bromide staining.

[2] = system: dsDNA template S5PhmttRNAProUGG; experiment: Synthesis of human mt tRNAPro, short RNA, optimized conditions
[3] = system: template for a 37 nt RNA or a 2.7 knt RNA; experiment: 2′-F-dNTP incorporation with mixed cofactor Mg2+/Mn2+; conditions: mixed cofactors Mg2+/Mn2+
Source text: FIG. 25A depicts a gel showing that WT Syn5 polymerase incorporates 2′-F-C/UTP and all four 2′-F′dNTP in the presence of mixed cofactor Mg^2+/Mn^2+.
FIG. 25B depicts a gel comparing 2′-F′dNTP incorporation using Mg^2+ versus the mixed cofactor.
According to certain aspects of the invention, co-factors such as Mg^+2 and Mn^+2 are used to reduce discrimination against 2′-F-dNTP of wild-type Syn5 RNA polymerase. The optimum cofactor concentration of Mg^2+ or Mn^2+ is similar for Syn5 RNA polymerase, and Mg^2+ and Mn^2+ are provided as mixed cofactors for the Syn5 RNA polymerase. Without wishing to be bound by scientific theory, a substantial proportion of Syn5 RNA polymerase in the reaction may utilize one Mg^2+ and one Mn^2+ in their active sites for catalysis (based on the two-metal-ion mechanism for polymerase catalysis) so that both high overall yield and low discrimination against 2′-F-dNTP can be achieved with the methods described herein.
The reaction components were incubated at 37° C. for 4 hrs. 0.4 µl of the reaction mixture were loaded onto 10% TBE gel or 2% agarose gel and stained with ethidium bromide. […] See FIG. 25A lane 5 vs lane 1; FIG. 25B lane 3 vs lane 1). […]

B1: Syn5 RNAP: single subunit DNA-dependent RNA polymerase from marine cyanophage Syn5, amino acid sequence SEQ ID NO:23 (protein)
chain: MSFDLIARQLQRETEAAELARKRLQDARREANERSYASSNIESRKAIATFLDPIAQRIGERLFTLRRGTGAVDAAEVYKHLKNADHHHLALITMKTALDVLGKDPEPQIQQLTTAIGRNIQLELRLTYYAEENPELYKQASRFFHAGTGTRQKATVIKLKFNREGIEWDQWSRVTCHKVGQWLMLAMADVTGWIERATDRTSGGRKTKTRICYSREFLQHRDTILAAAEQLAFCQWPMLCPPIEWSNDHNGGYLSEQIRRVNPLIRKTGPLGTRKQGDIPLAMLNNLQGQAYKVNPEVLDIANHCYESNVTVGKFIRHAPLPVPPSPGEDCTEDQLTAYKRARREAEDFNAQISQKNWRTTEVMYVARKYADEASFWMPASFDYRGRVYFLNTALNPQGTDFDKALLYFAEEGPVNEWWLSFHVATTYGLDKETMVNRVQWARDNHELIDRIASDPVRHTEWHDADEPWCFLAACLEYKACVIDGTKQTSGLPIGIDATCSGLQHLAAMTRCGRTAALVNVTPTDKPADAYKTVAQASLKHLPKEQHEWITRKVTKRPVMCTPYGVTMSSARGYIRDQLVKDGHKEDLRSPGVLNGIVKAIFNEAIPEVIPGPVQVMAWLKRSAGQIIDRGDSTITWTTPSGFEVVQDLKKSKTYEVKTRIMGGARIKLQVGDGFTDEPDRDHHKSALAPNVVHSNDASLLHLTFAFWDKPFTVIHDCVLGRSCDMDQMGSDIRLHFAEMYKADVMQDWADQVGVELPVDLIKNTLDIDSVNQSLYFFS
modifications: Amino acid sequence of a cyanophage Syn5 RNAP
apparent processivity [1]: over 30 kilo nucleotides
processivity [1]: greater than 30,000 nt
length approached by some products ([1]; low enzyme concentration): ~30 kilo nt
length of most products ([1]; low enzyme concentration): over 9 kilo nt
estimated yield of RNA ([2]; 100 µl transcription reaction): 4 nmole/100 µl
enzyme activity ([2]; at 42° C.): very low
reduction of yield ([2]; final NTP 4 mM instead of 8 mM): approximately 20%
RNA with all four 2′-F-dNMPs [3]: substantial yield
yield of 2′-F-dCMP/2′-F-dUMP incorporated RNA [3]: better yield

From US11066655B2, “RNA polymerase, methods of purification and methods of use” (President and Fellows of Harvard College, priority 2013, dated 2021)
